In PMC4263767, “IL-28B is a Key Regulator of B- and T-Cell Vaccine Responses against Influenza” (PLoS Pathogens, 2014):
Entries after “also recorded” stand apart in the source; their conditions may differ. Where two headings read alike, the source gives them in different places.

Assays:
Type in all cases: cell-based, human
[1] = system: PBMCs from transplant recipients; settings: IL-28B 100 ng/mL, 2 h before 5-day H1N1; 38 transplant recipients; p = 0.004
[2] = system: PBMCs from healthy volunteers; assay: Time course of cytokine release, independently recruited healthy volunteers (S3 Figure); settings: IL-28B 100 ng/ml
Text: Two luminex-based cytokine profiling kits were used (Eve Technologies, Calgary, Canada). (i) 17-plex: Fractalkine, IFN-α, IFN-γ, GRO, MCP-3, IL-13, sCD40-L, IL-9, IL-1β, IL-2, IL-4, IL-5, IL-6, IP-10, MCP-1, MIP-1α, and TNF-α. (ii) 41-plex: EGF, Eotaxin, FGF-2, FLT3, Fractalkine, G-CSF, GM-CSF, GRO. IFN-α2, IFN-γ, IL-1α, IL-1β, IL-1ra, IL-2, IL-3, IL-4, IL-5, IL-6, IL-7, IL-8, IL-9, IL-10, IL-12p40, IL-12p70, IL-13, IL-15, IL-17, IP-10, MCP-1, MCP-3, MDC, MIP-1α, MIP-1β, PDGF AA, PDGF AB/BB, RANTES, sCD40L, sIL2ra, TGF-α, TNF-α, TNF-β, and VEGF. Our independent experiment for examining a time course of cytokine induction was a custom-plex based on the 17-plex and still run and analyzed by Eve Technologies.
Supplementary file ppat.1004556.s003.tiff: S3 Figure A cytokine profile with pH1N1 stimulation +/− IL-28B pre-treatment (100 ng/ml) was performed. The time-points were collected within the same experiments. For the first 3 HVs studied, d+5 sample was not collected. Overall, the time-points d+1, d+3, d+7 were available in total 10 HVs and for d+5 in 7 HVs. Wilcoxon matched pairs rank test was used to test for significant difference. (TIFF) Click here for additional data file.

[3] = system: PBMCs from healthy volunteers; assay: Cytokine release by H1N1-stimulated healthy volunteer PBMCs, 5 days (luminex)
[4] = system: PBMCs from healthy volunteers; settings: 0 ng/mL: 19.2%, p = 0.92
Method: Prior to surface staining, LIVE/DEAD staining was performed (near-IR; Invitrogen). Markers for identifying T-cell subsets were CD3, and CD4. Intracellular cytokine staining was performed according to previously published protocols after overnight stimulation. IL-4 was used as a key representative for Th2 cytokine production. Background (unstimulated samples) were subtracted from stimulated results. All reagents including perm and fixation buffers and antibodies were from eBioscience. Isotype controls have previously been used to establish the assays.

[5] = system: CD3+CD4+ T-cells in PBMCs from transplant recipients
[6] = system: PBMCs from healthy volunteers
[7] = with IL-28B, 5-day H1N1, HV PBMCs n=9, median (IQR)

B1: IL-28B: recombinant IL-28B, a member of the interferon (IFN)-λ family (protein)
chain: VPVARLRGALPDARGCHIAQFKSLSPQELQAFKRAKDALEESLLLKDCKCRSRLFPRTWDLRQLQVRERPVALEAELALTLKVLEATADTDPALGDVLDQPLHTLHHILSQLRACIQPQPTAGPRTRGRLHHWLHRLQEAPKKESPGCLEASVTFNLFRLLTRDLNCVASGDLCV
modifications: left off: His tag, end not stated, kept
notes: recombinant IL-28B, a member of the interferon (IFN)-λ family
H1N1-induced IgG production with IL-28B (in words) [1]: significantly decreased | IFN-γ (in words) [2]: trend for upregulation | Th1 and Th1-associated cytokines, early time-points (in words) [2]: significantly up-regulated (IFN-α, IL12p40, TNF- α, and IL-6) | Th2 and Th2-associated cytokines, later time-points (in words) [2]: down-regulated | production of B-cell trophic and Th2 cytokines (in words) ([3]; 5-day H1N1, n = 9): significant decrease in the production of cytokines trophic for B-cells such as GRO, Fractalkine, and Th2-cytokines (IL-4, IL-5, IL-9, and IL-13) | IFN-α2, ratio IL28/no IL28 ([3]; 5-day H1N1, p=0.004): 1.7 | sIL2Ra, ratio IL28/no IL28 ([3]; 5-day H1N1, p=0.004): 0.6 | Fractalkine, ratio IL28/no IL28 ([3]; 5-day H1N1, p=0.008): 0.3 | GRO, ratio IL28/no IL28 ([3]; 5-day H1N1, p=0.008): 0.0 | IL-9, ratio IL28/no IL28 ([3]; 5-day H1N1, p=0.008): 0.2 | sCD40L, ratio IL28/no IL28 ([3]; 5-day H1N1, p=0.01): 0.4 | IL-5, ratio IL28/no IL28 ([3]; 5-day H1N1, p=0.02): 0.0 | IL-13, ratio IL28/no IL28 ([3]; 5-day H1N1, p=0.02): 0.6 | IL-4, ratio IL28/no IL28 ([3]; 5-day H1N1, p=0.03): 0.5 | IL-6, ratio IL28/no IL28 ([3]; 5-day H1N1, p=0.03): 1.3 | TGF-α, ratio IL28/no IL28 ([3]; 5-day H1N1, p=0.03): 1.3 | IL-1β, ratio IL28/no IL28 ([3]; 5-day H1N1, p=0.04): 1.9 | IP-10, ratio IL28/no IL28 ([3]; 5-day H1N1, p=0.08): 0.3 | FLT3, ratio IL28/no IL28 ([3]; 5-day H1N1, p=0.11): 0.5 | IL-3, ratio IL28/no IL28 ([3]; 5-day H1N1, p=0.16): 0.3 | TNF-β, ratio IL28/no IL28 ([3]; 5-day H1N1, p=0.16): 0.6 | IL-15, ratio IL28/no IL28 ([3]; 5-day H1N1, p=0.17): 0.9 | MCP-3, ratio IL28/no IL28 ([3]; 5-day H1N1, p=0.25): 1.1 | PDGF AA, ratio IL28/no IL28 ([3]; 5-day H1N1, p=0.25): 1.0 | FGF2, ratio IL28/no IL28 ([3]; 5-day H1N1, p=0.31): 0.8 | GM-CSF, ratio IL28/no IL28 ([3]; 5-day H1N1, p=0.38): 0.7 | IFN-γ, ratio IL28/no IL28 ([3]; 5-day H1N1, p=0.43): 0.9 | IL-12p40, ratio IL28/no IL28 ([3]; 5-day H1N1, p=0.44): 0.7 | MIP-1β, ratio IL28/no IL28 ([3]; 5-day H1N1, p=0.46): 1.2 | Eotaxin, ratio IL28/no IL28 ([3]; 5-day H1N1, p=0.47): 0.5 | MCP-1, ratio IL28/no IL28 ([3]; 5-day H1N1, p=0.55): 0.4 | TNF-α, ratio IL28/no IL28 ([3]; 5-day H1N1, p=0.55): 1.0 | IL-12p70, ratio IL28/no IL28 ([3]; 5-day H1N1, p=0.64): 0.7 | IL-17, ratio IL28/no IL28 ([3]; 5-day H1N1, p=0.69): 0.2 | MIP-1α, ratio IL28/no IL28 ([3]; 5-day H1N1, p=0.74): 1.1 | RANTES, ratio IL28/no IL28 ([3]; 5-day H1N1, p=0.74): 1.2 | G-CSF, ratio IL28/no IL28 ([3]; 5-day H1N1, p=0.75): 1.0 | IL-7, ratio IL28/no IL28 ([3]; 5-day H1N1, p=0.75): 1.0 | IL-1α, ratio IL28/no IL28 ([3]; 5-day H1N1, p=0.82): 1.1 | IL-10, ratio IL28/no IL28 ([3]; 5-day H1N1, p=0.82): 1.0 | VEGF, ratio IL28/no IL28 ([3]; 5-day H1N1, p=0.82): 1.2 | IL-1ra, ratio IL28/no IL28 ([3]; 5-day H1N1, p=0.84): 1.1 | IL-2, ratio IL28/no IL28 ([3]; 5-day H1N1, p=0.84): 2.0 | IL-8, ratio IL28/no IL28 ([3]; 5-day H1N1, p=0.95): 0.9 | PDGF AB/BB, ratio IL28/no IL28 ([3]; 5-day H1N1, p=0.95): 1.3 | EGF, ratio IL28/no IL28 ([3]; 5-day H1N1, p=1.00): 1.0 | MDC, ratio IL28/no IL28 ([3]; 5-day H1N1, p=1.00): 1.0 | Th2-cytokines (in words, abstract) ([3]; in vitro): suppressed Th2-cytokines (e.g. IL-4, IL-5, and IL-13) | EGF [3, 7]: 3.7 (3.7-3.7) pg/mL | Eotaxin [3, 7]: 3.2 (3.2-6.9) pg/mL | FGF2 [3, 7]: 13.1 (3.8-19.2) pg/mL | FLT3 [3, 7]: 4.0 (3.2-9.4) pg/mL | Fractalkine [3, 7]: 4.2 (0.6-10.7) pg/mL | G-CSF [3, 7]: 3.2 (3.2-4.2) pg/mL | GM-CSF [3, 7]: 358.9 (3.2-480.7) pg/mL | GRO [3, 7]: 3.6 (3.6-3.6) pg/mL | IFN-α2 [3, 7]: 2262.0 (808.2-3663.0) pg/mL | IFN-γ [3, 7]: 6028.0 (3513.0-9802.0) pg/mL | IL-1ra [3, 7]: 376.6 (3.2-838.8) pg/mL | IL-1α [3, 7]: 15.1 (7.8-18.6) pg/mL | IL-1β [3, 7]: 16.8 (6.8-29.2) pg/mL | IL-2 [3, 7]: 16.5 (0.6-60.4) pg/mL | IL-3 [3, 7]: 0.8 (0.6-3.5) pg/mL | IL-4 [3, 7]: 16.2 (6.1-33.1) pg/mL | IL-5 [3, 7]: 0.6 (0.6-8.3) pg/mL | IL-6 [3, 7]: 215.5 (69.4-864.5) pg/mL | IL-7 [3, 7]: 3.2 (3.2-3.2) pg/mL | IL-8 [3, 7]: 1308.0 (789.8-1567.0) pg/mL | IL-9 [3, 7]: 1.3 (0.6-6.7) pg/mL | IL-10 [3, 7]: 2597.0 (2063.0-4353.0) pg/mL | IL-12p40 [3, 7]: 3.2 (3.2-6.1) pg/mL | IL-12p70 [3, 7]: 1.6 (1.0-2.3) pg/mL | IL-13 [3, 7]: 96.8 (0.6-126.7) pg/mL | IL-15 [3, 7]: 2.7 (1.2-3.0) pg/mL | IL-17 [3, 7]: 0.6 (0.6-30.7) pg/mL | IP-10 [3, 7]: 219.8 (3.2-2804.0) pg/mL | MCP-1 [3, 7]: 53.8 (7.9-145.3) pg/mL | MCP-3 [3, 7]: 9988.0 (8889.0-12741.0) pg/mL | MDC [3, 7]: 16.0 (16.0-27.2) pg/mL | MIP-1α [3, 7]: 5759.0 (2283.0-6915.0) pg/mL | MIP-1β [3, 7]: 3575.0 (1795.0-5820.0) pg/mL | PDGF AA [3, 7]: 0.6 (0.6 – 0.6) pg/mL | PDGF AB/BB [3, 7]: 8.9 (1.3-18.2) pg/mL | RANTES [3, 7]: 3640.0 (1941.0-6677.0) pg/mL | TGF-α [3, 7]: 11.8 (9.7-17.0) pg/mL | TNF-α [3, 7]: 297.0 (3.1-449.6) pg/mL | TNF-β [3, 7]: 12.0 (1.0-27.4) pg/mL | VEGF [3, 7]: 34.6 (15.6-46.3) pg/mL | sCD40L [3, 7]: 253.0 (140.1-456.3) pg/mL | sIL2Ra [3, 7]: 192.2 (140.8-236.1) pg/mL | median % dead cells ([4]; IL-28B 1 ng/mL): 19.9% | median % dead cells ([4]; IL-28B 10 ng/mL): 23.6% | median % dead cells ([4]; IL-28B 100 ng/mL): 22.6% | fold reduction in IL-4 production by CD3+CD4+ T-cells ([5]; IL-28B 100 ng/mL, 2 h before overnight H1N1, transplant recipients n = 47): > 2 -fold | sensitivity of IL-4 production to IL-28B by genotype ([5]; minor allele (TG or GG) PBMCs, 45 transplant recipients): particularly pronounced in patients with a minor allele genotype; also recorded: strong sensitivity to IL-28B | reduction of IgG-production ([6]; abstract, in vitro): > 70% | lower H1N1-stimulated IgG antibody production ([6]; highest dose of IL-28B (100 ng/mL), 5-day H1N1, n = 8): 70%
